From patent publication US20260053963A1

Target: CD33 (human) (UniProt P20138)
Assay: cell-based or functional assay

UniProt P20138, sequence (P20138 18-364): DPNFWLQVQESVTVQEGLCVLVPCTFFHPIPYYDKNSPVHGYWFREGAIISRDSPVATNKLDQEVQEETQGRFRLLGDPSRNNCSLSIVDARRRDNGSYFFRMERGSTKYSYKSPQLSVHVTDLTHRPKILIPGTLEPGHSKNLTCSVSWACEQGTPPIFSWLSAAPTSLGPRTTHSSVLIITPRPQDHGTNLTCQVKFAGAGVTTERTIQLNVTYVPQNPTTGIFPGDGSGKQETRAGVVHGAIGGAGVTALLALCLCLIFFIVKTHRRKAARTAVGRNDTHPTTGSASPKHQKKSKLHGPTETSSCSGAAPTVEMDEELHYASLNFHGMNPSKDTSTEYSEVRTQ

## ^225Ac-labeled lintuzumab (^225Ac-labeled conjugate of p-SCN-Bn-DOTA and lintuzumab) (antibody; the values are: LD50)
  cytotoxicity on HL60 (leukemia cells): dose at which 50% of the cells were killed (LD50): 8 pCi/mL
